This is an account of results in the supplement of paper PMC10567573.

First the molecules themselves.
B1: CSTF3 (parent)
chain: YVPEKVKKAEKKLEENPYDLDAWS
B2: ZNF263 (parent)
chain: RTHTGEKPYKCTLCGENFSHRSNL
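Also: lentivirally expressed fusions sorted by FACS into six bins by GFP to DsRed ratio, PSI derived from sequencing read proportions per bin multiplied by bin number.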

One series covers variants of B1. The experiment in a line: protein stability index of a GFP-peptide fusion (GPS, HEK-293T) (PSI 1-6); higher = more stable. Particulars: c terminus: a fixed tail appended.
For YVPEKVKKAEKKLEENPYDLDAWL [S24L], the protein stability index was found to be 3.1. On the same count and under the same terms, the figure for YVPEKVKKAEKKLEENPYDLDAWW [S24W] is 1.66; for YVPEKVKKAEKKLEENPYDLDAWF [S24F] it is 2.83; for YVPEKVKKAEKKLEENPYDLDAWM [S24M] it is 2.15. Still for that read-out and setting: in the case of YVPEKVKKAEKKLEENPYDLDAWQ [S24Q] it was 2.23. On the same count and under the same terms, the figure for YVPEKVKKAEKKLEENPYDLDAWE [S24E] is 1.36. In the case of YVPEKVKKAEKKLEENPYDLDAWT [S24T], the protein stability index stood at 2.81.

For the variant YVPEKVKKAEKKLEENPYDLDAWK [S24K], the protein stability index stood at 2.79.

Regarding YVPEKVKKAEKKLEENPYDLDAWI [S24I], the protein stability index turned out to be 1.86. YVPEKVKKAEKKLEENPYDLDAWC [S24C]: the protein stability index was 3.61. On to YVPEKVKKAEKKLEENPYDLDAWA [S24A], for which the protein stability index turned out to be 3.55.

In the case of YVPEKVKKAEKKLEENPYDLDAWH [S24H], the protein stability index was 1.95. In the case of YVPEKVKKAEKKLEENPYDLDAWP [S24P], the protein stability index worked out at 2.56.

YVPEKVKKAEKKLEENPYDLDAWY [S24Y]: the protein stability index was 3.69.

As for YVPEKVKKAEKKLEENPYDLDAWD [S24D], the protein stability index was determined as 2.21. As for YVPEKVKKAEKKLEENPYDLDAWN [S24N], the protein stability index came to 2.26. Turning to YVPEKVKKAEKKLEENPYDLDAWV [S24V], the protein stability index turned out to be 2.85.

With YVPEKVKKAEKKLEENPYDLDAWR [S24R], the protein stability index turned out to be 2.02. For the variant YVPEKVKKAEKKLEENPYDLDAWG [S24G], the protein stability index was 3.98. On to YVPEKVKKAEKKLEENPYDTDAWS [L20T], for which the protein stability index worked out at 3.25. Same read-out and setting: the figure for YVPEKVKKAEKKLEENPYDMDAWS [L20M] is 1.91. The same measure, in the same setting: in the case of YVPEKVKKAEKKLEENPYDSDAWS [L20S] it was 2.24; in that of YVPEKVKKAEKKLEENPYDGDAWS [L20G], 2.15; in that of YVPEKVKKAEKKLEENPYDWDAWS [L20W], 1.55. Turning to YVPEKVKKAEKKLEENPYDKDAWS [L20K], the protein stability index came to 1.96. As for YVPEKVKKAEKKLEENPYDHDAWS [L20H], the protein stability index stood at 2.84. Consider YVPEKVKKAEKKLEENPYDVDAWS [L20V], for which the protein stability index was 3.2. On the same count and under the same terms, the figure for YVPEKVKKAEKKLEENPYDPDAWS [L20P] is 2.23; for YVPEKVKKAEKKLEENPYDQDAWS [L20Q] it is 2.79.

As for YVPEKVKKAEKKLEENPYDCDAWS [L20C], the protein stability index came to 2.71. As to YVPEKVKKAEKKLEENPYDRDAWS [L20R], the protein stability index is 2.9.

With YVPEKVKKAEKKLEENPYDIDAWS [L20I], the protein stability index was 1.97. As to YVPEKVKKAEKKLEENPYDFDAWS [L20F], the protein stability index amounted to 1.44. Turning to YVPEKVKKAEKKLEENPYDYDAWS [L20Y], the protein stability index was 2.13. Consider YVPEKVKKAEKKLEENPYDDDAWS [L20D], for which the protein stability index stood at 1.73. Same read-out and setting: the figure for YVPEKVKKAEKKLEENPYDEDAWS [L20E] is 1.76; for YVPEKVKKAEKKLEENPYDADAWS [L20A] it is 2.54. YVPEKVKKAEKKLEENPYDLDLWS [A22L]: the protein stability index came out at 3.05.

For the variant YVPEKVKKAEKKLEENPYDLDKWS [A22K], the protein stability index stood at 1.36. Regarding YVPEKVKKAEKKLEENPYDLDEWS [A22E], the protein stability index came out at 2.29. Same read-out and setting: the figure for YVPEKVKKAEKKLEENPYDLDFWS [A22F] is 1.8; for YVPEKVKKAEKKLEENPYDLDYWS [A22Y] it is 2.36.

Turning to YVPEKVKKAEKKLEENPYDLDDWS [A22D], the protein stability index amounted to 1.67. In the case of YVPEKVKKAEKKLEENPYDLDWWS [A22W], the protein stability index was determined as 2.73.

YVPEKVKKAEKKLEENPYDLDGWS [A22G]: the protein stability index came to 2.4.

As for YVPEKVKKAEKKLEENPYDLDCWS [A22C], the protein stability index is 2.59. YVPEKVKKAEKKLEENPYDLDMWS [A22M]: the protein stability index is 2.48. YVPEKVKKAEKKLEENPYDLDRWS [A22R]: the protein stability index stood at 2.65. On to YVPEKVKKAEKKLEENPYDLDTWS [A22T], for which the protein stability index turned out to be 1.88. For the variant YVPEKVKKAEKKLEENPYDLDPWS [A22P], the protein stability index was 2.47. Turning to YVPEKVKKAEKKLEENPYDLDSWS [A22S], the protein stability index worked out at 2.38. Take YVPEKVKKAEKKLEENPYDLDVWS [A22V]: the protein stability index is 3.55. For the variant YVPEKVKKAEKKLEENPYDLDNWS [A22N], the protein stability index turned out to be 2.26. In the case of YVPEKVKKAEKKLEENPYDLDHWS [A22H], the protein stability index amounted to 3.16. As to YVPEKVKKAEKKLEENPYDLDIWS [A22I], the protein stability index turned out to be 2.39. Still for that read-out and setting: in the case of YVPEKVKKAEKKLEENPYDLDQWS [A22Q] it was 2.98; in that of YVPEKVKKAEKKLEENPYDLDAMS [W23M], 3.05; in that of YVPEKVKKAEKKLEENPYDLDATS [W23T], 2.64. As to YVPEKVKKAEKKLEENPYDLDANS [W23N], the protein stability index was 3.51. As to YVPEKVKKAEKKLEENPYDLDAYS [W23Y], the protein stability index was determined as 1.77.

As for YVPEKVKKAEKKLEENPYDLDAVS [W23V], the protein stability index was determined as 2.38. With YVPEKVKKAEKKLEENPYDLDAPS [W23P], the protein stability index was found to be 3.22. As for YVPEKVKKAEKKLEENPYDLDAQS [W23Q], the protein stability index was 1.79. For YVPEKVKKAEKKLEENPYDLDAHS [W23H], the protein stability index was 1.95. Regarding YVPEKVKKAEKKLEENPYDLDARS [W23R], the protein stability index came out at 2.81. For the variant YVPEKVKKAEKKLEENPYDLDALS [W23L], the protein stability index was determined as 2.93. Still for that read-out and setting: in the case of YVPEKVKKAEKKLEENPYDLDAIS [W23I] it was 2.37. On to YVPEKVKKAEKKLEENPYDLDAGS [W23G], for which the protein stability index stood at 3.81. Same read-out and setting: in the case of YVPEKVKKAEKKLEENPYDLDASS [W23S] it was 2.6. As to YVPEKVKKAEKKLEENPYDLDAKS [W23K], the protein stability index was found to be 1.84. Take YVPEKVKKAEKKLEENPYDLDACS [W23C]: the protein stability index came to 2.38. Consider YVPEKVKKAEKKLEENPYDLDADS [W23D], for which the protein stability index was determined as 1.91.

YVPEKVKKAEKKLEENPYDLDAFS [W23F]: the protein stability index was 3.27. As to YVPEKVKKAEKKLEENPYDLDAAS [W23A], the protein stability index is 1.81. In the case of YVPEKVKKAEKKLEENPYDLDAES [W23E], the protein stability index was determined as 1.28.

On to YVPEKVKKAEKKLEENPYYLDAWS [D19Y], for which the protein stability index worked out at 2.69. For the variant YVPEKVKKAEKKLEENPYWLDAWS [D19W], the protein stability index worked out at 2.98. Take YVPEKVKKAEKKLEENPYDLFAWS [D21F]: the protein stability index came to 2.63. For YVPEKVKKAEKKLEENPYDLRAWS [D21R], the protein stability index was 2.03.

In the case of YVPEKVKKAEKKLEENPYDLWAWS [D21W], the protein stability index came to 2.24. The same measure, in the same setting: the figure for YVPEKVKKAEKKLEENPYDLNAWS [D21N] is 4.07; for YVPEKVKKAEKKLEENPYDLVAWS [D21V] it is 1.83; for YVPEKVKKAEKKLEENPYDLPAWS [D21P] it is 1.43. Turning to YVPEKVKKAEKKLEENPYDLAAWS [D21A], the protein stability index was 2.98. Consider YVPEKVKKAEKKLEENPYDLLAWS [D21L], for which the protein stability index came out at 1.99.

As to YVPEKVKKAEKKLEENPYDLHAWS [D21H], the protein stability index was found to be 2.43. Take YVPEKVKKAEKKLEENPYDLQAWS [D21Q]: the protein stability index is 2.86. For the variant YVPEKVKKAEKKLEENPYDLEAWS [D21E], the protein stability index was determined as 3.37. For YVPEKVKKAEKKLEENPYDLIAWS [D21I], the protein stability index is 3.3. Take YVPEKVKKAEKKLEENPYDLSAWS [D21S]: the protein stability index is 2.21.

As for YVPEKVKKAEKKLEENPYDLYAWS [D21Y], the protein stability index was determined as 2.19.

On to YVPEKVKKAEKKLEENPYDLGAWS [D21G], for which the protein stability index was determined as 2.66. In the case of YVPEKVKKAEKKLEENPYDLMAWS [D21M], the protein stability index was found to be 3.19.

In a further series the parent is B2. Described as above. Particulars: c terminus: a fixed tail appended.
As for RTVTGEKPYKCTLCGENFSHRSNL [H3V], the protein stability index was 1.85.
